According to PMC10462681:

Legend:
[1] = target: LRP4-HA mutant p.Tyr607Cys (c.1820A > G; LRP4-Mut), expressed in HEK293T cells (human) (UniProt O75096); test: pull-down; LRP4-HA (wild-type or mutated) from transfected HEK293T cells immobilised on beads with anti-HA antibody, incubated with or without recombinant agrin (1 µg/mL); western blot with anti-agrin antibody; N = 3 blots
[2] = target: LRP4-HA mutant p.Tyr607Cys (c.1820A > G; LRP4-Mut), expressed in HEK293T cells (human) (UniProt O75096)

recombinant rat agrin (neural agrin) (from UniProt P25304 1-1959) (ligand)
percent decrease of binding against wild-type LRP4 [1]: 80% | MuSK phosphorylation (anti-4G10 blot of immunoprecipitated MuSK-Flag) induced by agrin (0.4 µg/ml; 1, 3 and 6 h) in HEK293T cells expressing MuSK-Flag and mutant LRP4-HA, against wild-type LRP4-HA [2]: 40 % decrease
